Assays:
[1] = biological target: human CD40 (hCD40), full length, on cells (human) (UniProt P25942); test: cell-based or functional assay
[2] = biological target: cynoCD40-mFc (monkey (cyno)); test: flow cytometry, blocking of cynoCD40-mFc (2 µg/mL) binding to CHO-K1-cynoCD40L cells
Sequence of cynoCD40-mFc (monkey (cyno)) (chain, as listed by the source limits assumed, form in doubt): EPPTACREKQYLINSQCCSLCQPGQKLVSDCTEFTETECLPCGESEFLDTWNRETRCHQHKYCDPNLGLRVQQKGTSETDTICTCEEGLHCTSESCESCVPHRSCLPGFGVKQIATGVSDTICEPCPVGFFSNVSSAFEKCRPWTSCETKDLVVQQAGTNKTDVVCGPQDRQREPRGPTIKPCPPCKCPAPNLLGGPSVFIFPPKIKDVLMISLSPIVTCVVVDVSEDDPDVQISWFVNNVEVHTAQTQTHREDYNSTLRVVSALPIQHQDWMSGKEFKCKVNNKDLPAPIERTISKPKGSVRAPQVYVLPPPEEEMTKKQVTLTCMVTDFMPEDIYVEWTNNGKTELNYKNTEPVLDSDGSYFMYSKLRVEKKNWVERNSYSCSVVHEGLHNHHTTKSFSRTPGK

Sequence of human CD40 (hCD40), full length, on cells (human) (P25942 21-277 limits assumed): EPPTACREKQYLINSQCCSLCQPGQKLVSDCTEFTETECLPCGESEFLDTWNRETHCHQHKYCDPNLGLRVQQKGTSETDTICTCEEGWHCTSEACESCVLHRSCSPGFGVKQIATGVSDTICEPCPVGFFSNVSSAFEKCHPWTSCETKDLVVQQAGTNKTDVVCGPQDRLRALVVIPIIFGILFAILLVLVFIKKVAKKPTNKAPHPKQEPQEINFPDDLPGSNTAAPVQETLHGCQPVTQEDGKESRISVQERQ

IgG4 isotype control antibody
Inhibition, % of Ramos cell apoptosis at 0.064 ng/L (so in the source) [1]: -12% | Inhibition, % of Ramos cell apoptosis at 0.32 ng/L (so in the source) [1]: -9% | Inhibition, % of Ramos cell apoptosis at 1.6 ng/L (so in the source) [1]: -10% | Inhibition, % of Ramos cell apoptosis at 8 ng/L (so in the source) [1]: 0% | Inhibition, % of Ramos cell apoptosis at 40 ng/L (so in the source) [1]: -20% | Inhibition, % of Ramos cell apoptosis at 200 ng/L (so in the source) [1]: -6% | Inhibition, % of Ramos cell apoptosis at 1000 ng/L (so in the source) [1]: -3%

Iscalimab (CFZ533) (antibody)
IC50 [2]: 24.1 nM

Source: patent publication US20240383994A1
